Here are results for 35 sequences from the supplement of paper PMC7877785.

± gives the uncertainty stated by the source.

The nature of this series: self-splicing fitness, log relative to wild type (ln ratio); higher = more splicing; Tetrahymena group I intron in knt gene, E. coli kanamycin selection, DiMSum; sequences stand for … in CUCUCU…GGAGGGAAAAGUUAUCAGGCAUGCACCUGGUAGCUAGUCUUUAAACCAAUAGAUUGCAUCGGUUUAAAAGGCAAGACCGUCAAAUUGCGGGAAAGGGGUCAACAGCCGUUCAGUACCAAGUCUCAGGGGAAACUUUGAGAUGGCCUUGCAAAGGGUAUGGUAAUAAGCUGACGGACAUGGUCCUAACCACGCAGCCAAGUCCUAAGUCAACAGAUCUUCUGUUGAUAUGGAUGCAGUUCACAGACUAAAUGUCGGUCGGGGAAGAUGUAUUCUUCUCAUAAGAUAUAGUCGGACCUCUCCUUAAUGGGAGCUAGCGGAUGAAGUGAUGCAACACUGGAGCCGCUGGGAACUAAUUUGUAUGCGAAAGUAUAUUGAUUAGUUUUGGAGUACUCGUGGUCG
A digest of the protocol:
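Library with all eight P1ex-region intron nucleotides randomised, intron inside the knt kanamycin-resistance gene on pET-22b(+), in E. coli BL21(DE3). Cells grew overnight at 37°C or 30°C on LB agar with or without 25 μg/mL kanamycin (plus 100 μg/mL carbenicillin, 50 μM IPTG, 0.2% rhamnose), in six replicate transformations. Pooled colonies were amplicon-sequenced on Illumina HiSeq 2500. DiMSum fitness is the error-weighted combination of wild-type-normalised replicate fold changes, kanamycin versus none.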

Consider UACCAGCAAUAUUACGUCAA, for which the “self-splicing fitness (ln)” value (30 °C) was -1.19 ± 0.079 and the “self-splicing fitness (ln)” value (37 °C) was -0.33 ± 0.086. The like results for UACCAGCAAUAUUACGUCCG were, in that order, -0.95 ± 0.058 and -0.0389 ± 0.083.

As for UACCAGCAAUAUUACGUGGA, the “self-splicing fitness (ln)” value (30 °C) is -2.89 ± 0.15 and the “self-splicing fitness (ln)” value (37 °C) was -2.08 ± 0.12. With UACGAGCAAUAUUACGAAGG, the “self-splicing fitness (ln)” value (37 °C) was -0.765 ± 0.3. As to UACGAGCAAUAUUACGAGAU, the “self-splicing fitness (ln)” value is -3.99 ± 0.46 (30 °C) and -2.99 ± 0.38 (37 °C). Taken in the same sequence, the figures for UACGAGCAAUAUUACGAGGU were -3.41 ± 0.19 and -3.16 ± 0.17. Taken in the same sequence, the figures for UACGAGCAAUAUUACGAGUC were -2.81 ± 0.38 and -3.01 ± 0.43. Taken in the same sequence, the figures for UACGAGCAAUAUUACGAGUU were -2.32 ± 0.2 and -0.892 ± 0.23. For the sequence UACGAGCAAUAUUACGCAAC, the “self-splicing fitness (ln)” value reads like this: (30 °C) -2.85 ± 0.22; (37 °C) -2.19 ± 0.26. For UACGAGCAAUAUUACGCAUU, the “self-splicing fitness (ln)” value (30 °C) was -3.48 ± 0.43 and the “self-splicing fitness (ln)” value (37 °C) is -2.09 ± 0.46.

As to UACGAGCAAUAUUACGCCAA, the “self-splicing fitness (ln)” value (30 °C) is -2.18 ± 0.41. Take UACGAGCAAUAUUACGCCGC: the “self-splicing fitness (ln)” value reads like this: (30 °C) -2.03 ± 0.41; (37 °C) -2.1 ± 0.3.

Regarding UACGAGCAAUAUUACGCCUA, the “self-splicing fitness (ln)” value is -1.81 ± 0.15 (30 °C) and -0.823 ± 0.16 (37 °C). Taken in the same sequence, the figures for UACGAGCAAUAUUACGCGCA were -1.42 ± 0.19 and -1.03 ± 0.17.

As for UACGAGCAAUAUUACGCGGC, the “self-splicing fitness (ln)” value reads like this: (30 °C) -3.65 ± 0.37; (37 °C) -2.28 ± 0.28. The like results for UACGAGCAAUAUUACGGAGA were, in that order, -3.09 ± 0.33 and -2.84 ± 0.45. Take UACGAGCAAUAUUACGGAUG: the “self-splicing fitness (ln)” value is -2.95 ± 0.43 (30 °C) and -1.27 ± 0.34 (37 °C). On to UACGAGCAAUAUUACGGCAG, for which the “self-splicing fitness (ln)” value is -2.22 ± 0.23 (30 °C) and -1.65 ± 0.21 (37 °C). Taken in the same sequence, the figures for UACGAGCAAUAUUACGGCCG were -0.704 ± 0.13 and -1.01 ± 0.21.

With UACGAGCAAUAUUACGGUGU, the “self-splicing fitness (ln)” value (37 °C) is -3.09 ± 0.29. Take UACGAGCAAUAUUACGUCAU: the “self-splicing fitness (ln)” value was -4.92 ± 0.45 (30 °C) and -3.92 ± 0.39 (37 °C). For UACGAGCAAUAUUACGUCGC, the “self-splicing fitness (ln)” value (30 °C) was -3.3 ± 0.47 and the “self-splicing fitness (ln)” value (37 °C) is -2.49 ± 0.42. Turning to UACGAGCAAUAUUACGUGCC, for the setting “30 °C”, the “self-splicing fitness (ln)” value was -2.35 ± 0.29. In the case of UACGAGCAAUAUUACGUUAA, the “self-splicing fitness (ln)” value is -3.08 ± 0.26 (30 °C) and -1.57 ± 0.14 (37 °C). For the sequence UACGAGCAAUAUUACGUUAC, the “self-splicing fitness (ln)” value (30 °C) is -2.96 ± 0.42. On to UACGAGCAAUAUUACGUUGG, for which, under “37 °C”, the “self-splicing fitness (ln)” value is -2.22 ± 0.26. Consider UACUAGCAAUAUUACGACCU, for which the “self-splicing fitness (ln)” value reads like this: (30 °C) -2.01 ± 0.13; (37 °C) -0.83 ± 0.15. Take UACUAGCAAUAUUACGACGA: the “self-splicing fitness (ln)” value was -0.687 ± 0.058 (30 °C) and -0.172 ± 0.066 (37 °C). The like results for UACUAGCAAUAUUACGACUC were, in that order, -1.8 ± 0.42 and -0.907 ± 0.34. Consider UACUAGCAAUAUUACGACUU, for which the “self-splicing fitness (ln)” value (30 °C) is -1.27 ± 0.08 and the “self-splicing fitness (ln)” value (37 °C) is -0.271 ± 0.11. With UACUAGCAAUAUUACGAUAC, the “self-splicing fitness (ln)” value (30 °C) is -2.63 ± 0.2 and the “self-splicing fitness (ln)” value (37 °C) was -1.91 ± 0.25. Turning to UACUAGCAAUAUUACGAUCA, the “self-splicing fitness (ln)” value runs as follows: (30 °C) -1.21 ± 0.07; (37 °C) -0.774 ± 0.063. On to UACUAGCAAUAUUACGAUCG, for which the “self-splicing fitness (ln)” value reads like this: (30 °C) 0.0068 ± 0.092; (37 °C) 0.387 ± 0.12.

In the case of UACUAGCAAUAUUACGCAAC, the “self-splicing fitness (ln)” value reads like this: (30 °C) -2.26 ± 0.26; (37 °C) -1.85 ± 0.34. With UACUAGCAAUAUUACGCAAG, the “self-splicing fitness (ln)” value is -2.98 ± 0.33 (30 °C) and -1.72 ± 0.24 (37 °C).
